{
  "source": "paper doi:10.1101/2023.01.09.523197",
  "biological_target": "GlnR147-Alexa647;RNAP holoenzyme (Mycobacterium …, UniProt O53830;P9WGZ1;P9WGY9;P9WGY7;P9WGY5;P9WGI1 1-255;1-347;1-1178;1-1316;1-110;1-528, C61S;L148C|)",
  "experiment": "[…], SEC in 20 mM Tris-HCl pH 8.0, 75 mM NaCl, 5 mM MgCl2",
  "data": [
    {"binder": "amtB+2Cy3 (dsDNA) DNA 1: GCCCCGGCCGTTCACCCACGCGTAACACGCACCGTGCCTTCGTCACGGCGGCGAAACAACGAGGGGCTTCCACCGAAACCGCGCTGCGTCAATGTCGTGGCGCATAACCGGCCCACCCCT DNA 2: AGGGGTGGGCCGGTTATGCGCCACGACATTGACGCAGCGCGGTTTCGGTGGAAGCCCCTCGTTGTTTCGCCGCCGTGACGAAGGCACGGTGCGTGTTACGCGTGGGTGAACGGCCGGGGC", "values": [
      {"measurement": "binding result", "value": "binds"}
    ]}
  ]
}
